Two molecules from paper PMC9482650, “Quantitative fragmentomics allow affinity mapping of interactomes” (Nature Communications, 2022) can be followed below.

Holding throughout (experiment): holdup assay
What all share (set-up): key: below the threshold = too weak to quantify, mostly under pKd 3.1 to 4
Settings in all cases: plain residues with an end cap or a label only (N-terminal biotin on a linker: ttds)

In experiment [1] the target is T1, PARD6B, Q9BYG5.
T1 sequence (Q9BYG5 152-260, limits assumed, looked up): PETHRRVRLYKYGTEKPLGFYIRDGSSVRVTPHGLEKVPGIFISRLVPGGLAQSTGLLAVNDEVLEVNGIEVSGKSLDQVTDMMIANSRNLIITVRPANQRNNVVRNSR

The target of experiment [2] is T2, SHROOM2, Q13796.
T2 sequence (Q13796 21-118, limits assumed, looked up): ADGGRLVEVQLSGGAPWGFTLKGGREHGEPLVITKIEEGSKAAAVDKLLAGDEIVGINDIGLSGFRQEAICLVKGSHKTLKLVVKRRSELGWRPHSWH

Experiment [3] deals with MAGI3_3, Q5TCQ9.
Experiment [4] has as its target GRIP2_2, Q9C0E4.
The target in experiment [5] is T3, MAGI2_1, Q86UL8.
T3 sequence (Q86UL8 12-111, limits assumed, looked up): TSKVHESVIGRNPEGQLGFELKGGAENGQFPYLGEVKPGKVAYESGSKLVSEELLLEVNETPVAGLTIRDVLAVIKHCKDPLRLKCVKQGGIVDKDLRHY

Experiment [6] has as its target MAGI1_5, Q96QZ7.
Experiment [7] addresses Inadl_7, Q8NI35.
In experiment [8] the target is DLG2_1, Q15700.
Experiment [9] has as its target MAST3, O60307.
Experiment [10] deals with PARD3_1, Q8TEW0.
For experiment [11], the target named is T4, PTPN4, P29074.
T4 sequence (P29074 512-599, limits assumed, looked up): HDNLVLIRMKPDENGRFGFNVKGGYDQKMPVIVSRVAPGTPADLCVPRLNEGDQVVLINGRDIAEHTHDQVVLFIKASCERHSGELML

In experiment [12] the target is MAGI3_5, Q5TCQ9.
The target of experiment [13] is T5, GRIP1_1, Q9Y3R0.
T5 sequence (Q9Y3R0 48-146, limits assumed, looked up): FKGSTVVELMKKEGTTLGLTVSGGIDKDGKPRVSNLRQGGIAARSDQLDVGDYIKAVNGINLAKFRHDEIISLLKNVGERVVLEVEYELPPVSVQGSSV

Experiment [14] deals with T6, USH1C_3, Q9Y6N9.
T6 sequence (Q9Y6N9 447-547, limits assumed, looked up): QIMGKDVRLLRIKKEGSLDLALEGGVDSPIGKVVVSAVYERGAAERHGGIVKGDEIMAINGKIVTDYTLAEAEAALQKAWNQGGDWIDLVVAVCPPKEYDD

Experiment [15] deals with T7, TJP3_1, O95049.
T7 sequence (O95049 6-103, limits assumed, looked up): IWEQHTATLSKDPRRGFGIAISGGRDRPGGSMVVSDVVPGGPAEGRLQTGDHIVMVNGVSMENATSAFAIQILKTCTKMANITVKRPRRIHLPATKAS

Experiment [16] deals with T8, SHROOM4, Q9ULL8.
T8 sequence (Q9ULL8 5-102, limits assumed, looked up): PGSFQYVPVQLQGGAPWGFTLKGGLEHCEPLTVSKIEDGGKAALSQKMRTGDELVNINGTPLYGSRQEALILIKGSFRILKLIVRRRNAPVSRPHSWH

Experiment [17] has as its target T9, MPDZ_2, O75970.
T9 sequence (O75970 252-347, limits assumed, looked up): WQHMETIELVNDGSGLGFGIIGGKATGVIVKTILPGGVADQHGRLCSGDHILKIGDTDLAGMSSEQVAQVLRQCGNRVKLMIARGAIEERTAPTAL

The target of experiment [18] is MAGIX, Q9H6Y5.
Experiment [19] deals with T10, MLLT4, P55196.
T10 sequence (P55196 1002-1103, limits assumed, looked up): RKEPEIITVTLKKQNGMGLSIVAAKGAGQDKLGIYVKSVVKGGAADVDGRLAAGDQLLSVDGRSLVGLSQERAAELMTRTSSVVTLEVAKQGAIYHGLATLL

Experiment [20] deals with T11, PREX2_2, Q70Z35.
T11 sequence (Q70Z35 672-764, limits assumed, looked up): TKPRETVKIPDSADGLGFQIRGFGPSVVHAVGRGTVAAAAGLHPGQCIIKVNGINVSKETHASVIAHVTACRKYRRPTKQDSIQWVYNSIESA

The target in experiment [21] is T12, PDZRN3_2, Q9UPQ7.
T12 sequence (Q9UPQ7 414-513, limits assumed, looked up): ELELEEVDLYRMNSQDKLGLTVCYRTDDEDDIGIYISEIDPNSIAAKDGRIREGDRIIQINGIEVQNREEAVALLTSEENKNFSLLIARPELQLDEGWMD

Experiment [22] has as its target T13, PDZD2_6, O15018.
T13 sequence (O15018 2745-2839, limits assumed, looked up): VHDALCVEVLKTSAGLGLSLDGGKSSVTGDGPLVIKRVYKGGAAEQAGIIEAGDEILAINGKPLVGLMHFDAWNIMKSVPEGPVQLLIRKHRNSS

Experiment [23] deals with T14, PDZD11, Q5EBL8.
T14 sequence (Q5EBL8 42-139, limits assumed, looked up): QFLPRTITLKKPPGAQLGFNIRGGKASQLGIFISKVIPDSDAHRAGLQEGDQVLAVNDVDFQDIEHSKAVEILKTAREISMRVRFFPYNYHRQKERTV

Sequence of MAGI3_5, Q5TCQ9 (Q5TCQ9 847-941): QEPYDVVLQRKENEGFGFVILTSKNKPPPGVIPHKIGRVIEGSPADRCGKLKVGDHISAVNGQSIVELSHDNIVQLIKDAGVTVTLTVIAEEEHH
Sequence of Inadl_7, Q8NI35 (Q8NI35 1219-1332): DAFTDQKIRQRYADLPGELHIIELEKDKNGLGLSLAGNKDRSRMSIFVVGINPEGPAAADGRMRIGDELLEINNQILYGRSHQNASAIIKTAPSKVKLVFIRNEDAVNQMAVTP
Sequence of MAGIX, Q9H6Y5 (Q9H6Y5 118-211): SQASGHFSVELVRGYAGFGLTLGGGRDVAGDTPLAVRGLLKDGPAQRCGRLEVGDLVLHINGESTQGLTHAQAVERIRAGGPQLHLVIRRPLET
Sequence of GRIP2_2, Q9C0E4 (Q9C0E4 137-245): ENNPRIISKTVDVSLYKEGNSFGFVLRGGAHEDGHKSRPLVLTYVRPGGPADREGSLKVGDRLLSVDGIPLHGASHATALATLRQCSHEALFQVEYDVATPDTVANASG
Sequence of MAGI3_3, Q5TCQ9 (Q5TCQ9 572-655): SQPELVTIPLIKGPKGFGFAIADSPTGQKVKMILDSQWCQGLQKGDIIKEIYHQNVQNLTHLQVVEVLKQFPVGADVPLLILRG
Sequence of PARD3_1, Q8TEW0 (Q8TEW0 264-372): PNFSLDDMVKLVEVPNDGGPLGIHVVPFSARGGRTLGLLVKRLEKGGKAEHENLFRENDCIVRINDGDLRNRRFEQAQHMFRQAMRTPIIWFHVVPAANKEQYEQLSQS
Sequence of MAGI1_5, Q96QZ7 (Q96QZ7 986-1098): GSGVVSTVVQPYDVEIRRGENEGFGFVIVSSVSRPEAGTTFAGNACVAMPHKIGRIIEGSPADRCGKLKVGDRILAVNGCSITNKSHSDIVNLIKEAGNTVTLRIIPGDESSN
Sequence of MAST3, O60307 (O60307 945-1048): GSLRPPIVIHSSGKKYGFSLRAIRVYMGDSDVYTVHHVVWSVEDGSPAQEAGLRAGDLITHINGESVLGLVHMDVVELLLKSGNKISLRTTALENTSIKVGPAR

As for HRTCYLVTQL [ASIC3, Q9UHC3], the pKd result in experiment [1] was “below the threshold”; in experiment [2] it was “below the threshold”; in experiment [3], “below the threshold”; in [4], 4.28; in [5], 4.01; in experiment [6], 5.13. Further, the negative-log Kd (pKd) was 4.05 in [7]; “below the threshold” in experiment [8]; 4.04 in experiment [9]; “below the threshold” in [10]; “below the threshold” in experiment [11]; 4.64 in [12]. Also, the pKd in experiment [13] is 4.31; in experiment [14], “below the threshold”; in [15] it was “below the threshold”; in [16], “below the threshold”; in experiment [17], “below the threshold”; in experiment [18] it was “below the threshold”. Moreover, the negative logarithm of the Kd (pKd) entry in experiment [19], in [20], in experiment [21], in [22] and in experiment [23] was “below the threshold” in each case.

Turning to RTRQRNETQV [HPV51-E6, P26554], the negative logarithm of the Kd (pKd) result in experiment [1], in [2], in [3], in experiment [4], in experiment [5] and in [6] was “below the threshold” in each case. Moreover, the negative logarithm of the Kd (pKd) entry in experiment [7] was “below the threshold”; in [8], 5.06; in experiment [9] it was “below the threshold”; in experiment [10], “below the threshold”; in experiment [11], “below the threshold”; in [12], “below the threshold”. The negative logarithm of the Kd (pKd) entry in experiment [13] is “below the threshold”; in [14] it was 4.16; in [15], “below the threshold”; in [16] it was “below the threshold”; in experiment [17], “below the threshold”; in experiment [18], “below the threshold”. Moreover, the negative-log Kd (pKd) result is “below the threshold” in experiment [19]; “below the threshold” in experiment [20]; 4.16 in experiment [21]; “below the threshold” in experiment [22]; “below the threshold” in [23].

As a reminder, the pKd is the Kd on a negative log10 scale, so that one unit is a factor of ten.
